Source: patent publication US20230374114A1 (Dana-Farber, published 2023)

Key:
[1] = target: WT Spike (SARS-CoV2, UniProt P0DTC2 16-1213)
[2] = target: WT Spike (SARS-CoV-2, UniProt P0DTC2 16-1213)
[3] = target: spike protein on live SARS-CoV-2 (isolate USA-WA1/2020) (SARS-CoV2, UniProt P0DTC2 14-1273); test: cell-based or functional assay

B1: RBD-R3-E1-F5 Ab (Ab_36) (scFv, V domains shown)
VH: QVQLQQSGPGLVKPSQTLSLTCAIFGDSVTSNSAAWNWIRQSPSRGLEWLGRTYYSSKWYNDYAVSVKSRVTINADTSKNQLSLQLNSVTPEDTAVYYCARGWLRLSFDPWGQGTLVTVSS
VL: NFMLTQPHSVSESPGKTVTISCTGSSGSIASNYVQWLQQRLGSAPTTVIYEDNQRPSGVPDRFSGSIDSSSNSASLTISGLKTEDEADYYCQSYDPNNHGVVFGGGTKLTVL
Work on B1 yielded a Kd [1] of 9.01 pM.

B2: S1-RBD-R3-T1-F9 Ab (Ab_39) (scFv, V domains shown)
VH: QVTLKESGPTLVKPTQTLTLTCTLSGVSLDTIGMRVSWIRQPPGKALEWLARIDWDDDKFYSTALKTRLTISKDTSKNQVVFTMTSMDPVDTATYYCARSGLLYDLDVWGRGTLVTVSS
VL: QSVVTQPPSVSGAPGQRVTISCTGSDSDIGANFVQWYQQLPGTAPKLLIWRNTNRPSGVPDRFSASKSGTSASLAITGLQAEDEADYFCQSYDSSLSAYVFGGGTKVTVL
B2 gave a Kd [1] of 2.04 pM.

B3: Ab 38 (scFv, V domains shown)
VH: QVTLKESGPTLVKPTQTLTLTCTFSGFSLTTSGVSVGWIRQPPGKALEWLALIHWDDDKRYSPSLRSRLTITRDTSKNQVVLTVTDMDPADTGTYYCASFIMTVYAEYFEDWGQGTLVTVSS
VL: EIVLTQSPATLSVSPGERATLSCRASQSVSSNLAWYQQKPGQAPRLLMYDVSTRATGIPARFSGSGSGTEFSLTISSLQSEDFAVYYCQQRGAWPLTFGGGTKVEIK
With B3 the Kd [1] was 7.86 pM.

B4: S1-RBD-R3-T1-G1 Ab (Ab_35) (scFv, V domains shown)
VH: EVQLVQSGAEVKKPGESLRISCKASGYSFTSNWIGWVRQMPGKGLEWMGSIFPGDSDTKYSPSFQGQVTISADRSISTAYLQWSGLKASDTAMYYCARESYNAYGSWGQGTLVTVSS
VL: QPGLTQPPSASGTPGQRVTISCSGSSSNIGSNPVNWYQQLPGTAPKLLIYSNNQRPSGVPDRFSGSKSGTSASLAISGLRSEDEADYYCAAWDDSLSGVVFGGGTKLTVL
Work on B4 yielded a Kd [1] of 8.9 pM.

B5: S1-RBD-R3-E1-E8 Ab (Ab 37) (scFv, V domains shown)
VH: QVQLVQSGAEVKKPGASVKVSCKASGYTFTSYGISWVRQAPGQGLEWMGWISTYNGNTNYAQKLQGRVTMTTDTSTSTAYMEVRSLRSDDTAVYYCARDVFGHFDYWGQGTLVTVSS
VL: NFMLTQPHSVSESPGKTVLISCTRSSGNIATNYVQWYQQRPGSAPTTVIYEDNQRPSGVPDRFSGSIDSSSNSASLTISGLKTEDEADYYCKSYDDGNHVFGGGTKLTVL
Binder B5 has a Kd [1] of 9 pM.

B6: S1-R3-T1-H7 (Ab12) (scFv, V domains shown)
VH: EVQLVESGPGVVSPSATLFLTCSVSGGSIRTHSWNWIRQPPGKPLEWIGFIHHSGATNKNPSLKSRVTISSDTSKNEFSLTLTSVTAADTAVYYCARGPGILSYWSRGTLVTVSS
VL: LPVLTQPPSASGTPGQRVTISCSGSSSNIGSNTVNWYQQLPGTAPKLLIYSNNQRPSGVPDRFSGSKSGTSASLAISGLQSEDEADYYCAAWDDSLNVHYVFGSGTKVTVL
For B6, the Kd [2] was 8.31 pM.

B7: Ab 14 IgG (antibody, V domains shown)
VH: QVQLQQSGPGLVKPSQTLSLTCAISGDSVSSNSAAWNWIRQSPARGLEWLGRTYYRSRWYNDYAISMKSRITINPDTSKNQFSLQLESVTPEDTAVYYCAREIRGFDYWGQGTLVTVSS
VL: QSVLTQPPSASGSPGQSVTISCTGTSSDVGAYNFVSWYQHHPGKAPKLIIYDFNKRPSGVPDRFSGSKSGNTASLTVSGLQADDEADYYCSSYAGSNNFDVVFGGGTKLTVL
With B7 the “shift of the neutralization IC50 of the IgG against the scFv-Fc” value [3] was 40 fold.
